Data: publication PMC4504036

What was measured:
Human factor XII (human) [1] = biological target: Human factor XII (human)
Human factor XII (human) [2] = biological target: Human factor XII (human); remark: listed apart in the source
[3] = biological target: Recombinant wild-type phospholipid transfer protein (rPLTP) (human) (UniProt P55058); test: SPR; BIAcore 3000; rPLTP with C-terminal His-tag captured on anti-His tag monoclonal antibody immobilised on a CM5 chip; factor XII (0-750 nM) or factor XI injected; 50 mM Hepes, 150 mM NaCl, 5 mM CaCl2, pH 7.4; global fit, simple Langmuir model; apparent Kd

Row | Substance | inhibition by rPLTP of sulfatide-induced kallikrein generation (contact activation) in plasma (S2302 amidolytic activity at 6 min) (Human factor XII (human) [1]) [µg/mL] | inhibition by rPLTP of sulfatide-stimulated factor XII autoactivation in a purified system in the presence of VLDL (factor XIIa amidolytic activity, S2302, at 15 min) (Human factor XII (human) [2]) [µg/mL] | Kd [3] [nM] | koff [3] [s⁻¹] | kon [3] [M⁻¹ s⁻¹]
1 | Recombinant wild-type phospholipid transfer protein (rPLTP) (from UniProt P55058 18-493) (natural protein) | 0.69 | 1.2 | – | – | –
2 | Human factor XII (natural protein) | – | – | 190 | 0.006 | 31000
